The target of experiment [1] is TDP-43-flag (pcDNA3.1 construct) (UniProt Q13148). The experiment in a line: AlphaScreen or HTRF; proximity AlphaLISA on lysates of co-transfected HEK293FT cells, 72 hr after transfection; anti-FLAG acceptor beads, biotinylated Ataxin-2 antibody and streptavidin donor beads; room temperature. (Alpha assays give light when donor and acceptor beads are brought close together.)

Experiment [2] has as its target TDP-43mutRRM-flag (pcDNA3.1 construct) (UniProt Q13148). Described as above.

Chain of Ataxin-2 (ATXN2, pcDNA3.1 construct) (Q99700 whole entry): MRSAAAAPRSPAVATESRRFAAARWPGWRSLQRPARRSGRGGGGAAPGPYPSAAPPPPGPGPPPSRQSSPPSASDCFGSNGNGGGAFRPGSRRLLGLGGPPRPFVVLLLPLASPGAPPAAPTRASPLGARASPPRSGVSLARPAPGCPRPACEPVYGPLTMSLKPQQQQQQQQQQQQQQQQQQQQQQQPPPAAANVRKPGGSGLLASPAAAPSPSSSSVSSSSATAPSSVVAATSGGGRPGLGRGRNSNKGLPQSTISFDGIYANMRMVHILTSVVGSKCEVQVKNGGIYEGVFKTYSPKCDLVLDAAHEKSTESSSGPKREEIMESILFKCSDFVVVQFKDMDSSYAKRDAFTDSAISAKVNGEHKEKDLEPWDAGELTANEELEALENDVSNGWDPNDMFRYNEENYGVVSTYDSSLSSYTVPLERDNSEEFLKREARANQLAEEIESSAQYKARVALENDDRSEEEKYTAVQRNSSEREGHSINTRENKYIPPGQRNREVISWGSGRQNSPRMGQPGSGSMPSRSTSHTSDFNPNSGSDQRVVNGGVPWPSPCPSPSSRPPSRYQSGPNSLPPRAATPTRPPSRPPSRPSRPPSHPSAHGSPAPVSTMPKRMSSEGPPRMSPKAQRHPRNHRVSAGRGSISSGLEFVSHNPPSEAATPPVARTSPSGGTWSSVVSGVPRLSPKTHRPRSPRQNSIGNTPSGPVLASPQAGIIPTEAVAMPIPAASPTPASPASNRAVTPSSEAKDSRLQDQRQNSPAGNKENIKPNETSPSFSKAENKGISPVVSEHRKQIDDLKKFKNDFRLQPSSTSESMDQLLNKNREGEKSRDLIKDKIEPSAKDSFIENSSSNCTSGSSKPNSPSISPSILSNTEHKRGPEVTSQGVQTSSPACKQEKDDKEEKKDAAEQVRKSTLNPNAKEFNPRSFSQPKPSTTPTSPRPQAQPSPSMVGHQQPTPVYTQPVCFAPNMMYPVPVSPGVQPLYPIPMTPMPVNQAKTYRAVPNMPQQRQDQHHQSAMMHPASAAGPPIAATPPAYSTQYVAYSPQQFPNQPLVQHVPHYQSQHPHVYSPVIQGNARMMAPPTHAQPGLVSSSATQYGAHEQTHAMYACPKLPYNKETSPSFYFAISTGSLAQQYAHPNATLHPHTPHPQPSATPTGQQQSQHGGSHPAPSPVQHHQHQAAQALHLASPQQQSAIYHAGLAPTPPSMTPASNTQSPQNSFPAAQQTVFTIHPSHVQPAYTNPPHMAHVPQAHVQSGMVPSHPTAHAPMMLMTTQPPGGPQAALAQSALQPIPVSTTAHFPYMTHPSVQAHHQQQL
Chain of TDP-43mutRRM-flag (pcDNA3.1 construct) (Q13148 whole entry): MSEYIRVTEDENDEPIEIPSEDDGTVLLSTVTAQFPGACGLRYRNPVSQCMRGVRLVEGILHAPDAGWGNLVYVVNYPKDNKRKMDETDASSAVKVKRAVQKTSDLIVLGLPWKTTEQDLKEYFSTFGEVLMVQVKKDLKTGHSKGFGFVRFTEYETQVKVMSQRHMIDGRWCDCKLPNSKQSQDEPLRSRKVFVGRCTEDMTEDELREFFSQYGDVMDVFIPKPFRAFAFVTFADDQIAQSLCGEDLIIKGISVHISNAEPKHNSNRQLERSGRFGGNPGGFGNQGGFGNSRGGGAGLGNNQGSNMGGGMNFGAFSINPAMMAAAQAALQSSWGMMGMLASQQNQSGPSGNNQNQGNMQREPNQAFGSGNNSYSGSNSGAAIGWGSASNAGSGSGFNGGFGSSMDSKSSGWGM
Chain of TDP-43-flag (pcDNA3.1 construct) (Q13148 whole entry): as above

Take “Ataxin-2 (ATXN2, pcDNA3.1 construct) (from UniProt Q99700 1-1313) (natural protein)”: the fold increase of the AlphaLISA interaction signal in experiment [1] worked out at 22 fold; in experiment [2] it was 2 fold.

Values taken from PMC11687654.
